Test results taken from paper PMC8024308, “Epitope-directed monoclonal antibody production using a mixed antigen cocktail facilitates antibody characterization and validation” (Communications Biology, 2021).

Target: the molecule itself
Test: ELISA; two-site sandwich ELISA with the same mAb (30D12 or 4F2) as coated capture (5 ug/ml) and as biotinylated detector (1 ug/ml); recombinant hANKRD1 at 20 ng/ml; self-pairing read as dimer

B1: recombinant human ankyrin repeat domain 1 (hANKRD1; OriGene Technologies) (natural protein)
chain: not shown
notes: human ankyrin repeat domain 1 (ANKRD1), full-length recombinant protein, N-terminal His-tagged, OriGene Technologies; expected mass 43 kDa; The preparation holds monomer (43 kDa) and dimer (86 kDa) on non-reducing SDS-PAGE; also called recombinant hANKRD1; source: bought: OriGene Technologies (bacterially derived recombinant preparation)
  binding result: binds
